Columns and labels:
[1] = test system: HEK293/hPRLR/STAT5-Luc cells (human PRLR); experiment: STAT5-Luc luciferase reporter assay, blocking of PRL-mediated receptor activation; assay type: cell-based; conditions: for IC50: 5 nM constant PRL, 6 hr at 37° C.; for Percent Blocking at 100 nM Antibody: 5 nM PRL
Text: The ability of anti-PRLR antibodies to block prolactin (PRL)-mediated receptor activation was examined in a luciferase-based reporter assay. The endocrine hormone PRL binds to the extracellular domain of its cognate receptor PRLR, triggering rapid homodimerization and activating several downstream signaling cascades.
In this example, an engineered cell line was used to determine the ability of anti-PRLR antibodies to block ligand activation of the PRLR receptor. Briefly, HEK293/hPRLR/STAT5-Luc cell lines with stable incorporation of a human PRLR expression cassette and the STAT5-dependent luciferase reporter were generated via sequential rounds of Lipofectamine® 2000-mediated transfection (LifeTechnologies, Carlsbad, Calif.). Cells were selected for at least two weeks in the presence of 500 μg/mL G418 (hPRLR) and 100 μg/mL hygromycin B (STAT5-Luc). The STAT5-Luc assay utilized 2×10^5 HEK293/hPRLR/STAT5-Luc cells seeded in complete growth medium on PDL-coated 96 well plates grown overnight at 37° C., 5% CO2. To generate antibody inhibition curves, cells were incubated (6 hr at 37° C.) with serially diluted anti-human PRLR antibodies (100 nM to 24 pM) in the presence of 5 nM constant PRL before recording signal. PRL dose response curves were generated by the addition of serially diluted PRL (100 nM to 24 pM) to cells and recording signal after a 6 hr (37° C.) incubation in the absence of antibodies. The ability of the antibodies to activate PRLR in the absence of ligand was also assessed.
Luciferase activity was measured with ONE-GLO™ reagent (Promega, Madison, Wis.). Relative light units (RLUs) were measured on a Victor luminometer (Perkin Elmer, Shelton, Conn.). EC50/IC50 values were determined from a four-parameter logistic equation over an 8-point response curve using GraphPad Prism. Percent blocking and percent activation are reported for the highest antibody dose.

[2] = biological target: T1, hPRLR.mFc (soluble dimeric human PRLR) (Homo sapiens, UniProt P16471); experiment: Surface plasmon resonance (Biacore T200), mAb-capture format; assay type: binding; conditions: antibody-capture format, analyte hPRLR.mFc
T1 construct: dimeric (hPRLR.mFc)
T1 sequence (P16471 with tags, fused parts or gaps): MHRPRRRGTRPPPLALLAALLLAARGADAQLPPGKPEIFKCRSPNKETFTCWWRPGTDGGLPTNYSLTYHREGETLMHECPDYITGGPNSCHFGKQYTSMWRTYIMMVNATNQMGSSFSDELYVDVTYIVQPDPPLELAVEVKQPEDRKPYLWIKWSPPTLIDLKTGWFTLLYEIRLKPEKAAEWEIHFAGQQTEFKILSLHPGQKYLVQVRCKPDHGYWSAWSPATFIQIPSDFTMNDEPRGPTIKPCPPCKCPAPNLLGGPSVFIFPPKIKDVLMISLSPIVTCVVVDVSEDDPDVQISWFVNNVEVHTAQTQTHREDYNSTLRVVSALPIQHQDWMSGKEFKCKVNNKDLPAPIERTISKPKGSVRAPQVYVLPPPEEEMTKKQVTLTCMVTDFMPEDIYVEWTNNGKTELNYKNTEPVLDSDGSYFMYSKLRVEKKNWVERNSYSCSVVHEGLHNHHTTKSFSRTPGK
Description: (§1) Antibodies, expressed as human IgG1 Fc “[…]” designations), were captured onto an anti-human Fc sensor surface (mAb-capture format), and soluble monomeric (hPRLR.mmh; SEQ ID NO:401, or macaca fascicularis (mf) PRLR.mmh; SEQ ID NO:403) or dimeric (hPRLR.mFc; SEQ ID NO:402) PRLR protein was injected over the sensor surface. Measurements were conducted on a T200 Biacore instrument. Kinetic association (ka) and dissociation (kd) rate constants were determined by processing and fitting the data to a 1:1 binding model using Scrubber 2.0 curve fitting software.

[3] = biological target: T2, hPRLR.mmh (soluble monomeric human PRLR) (Homo sapiens, UniProt P16471); experiment: as above; assay type: binding; conditions: antibody-capture format, analyte hPRLR.mmh
T2 construct: soluble monomeric (hPRLR.mmh); mmh (myc-myc-hexahistidine)
T2 sequence (P16471 with tags, fused parts or gaps): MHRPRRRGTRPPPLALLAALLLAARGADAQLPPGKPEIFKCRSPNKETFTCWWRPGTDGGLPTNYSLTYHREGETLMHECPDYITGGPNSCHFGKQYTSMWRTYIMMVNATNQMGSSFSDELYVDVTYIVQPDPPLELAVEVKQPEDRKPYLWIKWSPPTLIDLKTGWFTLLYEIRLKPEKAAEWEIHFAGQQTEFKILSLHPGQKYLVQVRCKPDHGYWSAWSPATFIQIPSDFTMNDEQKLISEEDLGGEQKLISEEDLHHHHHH
Description: as §1

[4] = biological target: mfPRLR.mmh (monomeric macaca fascicularis PRLR); experiment: as above; assay type: binding; conditions: antibody-capture format, analyte mfPRLR.mmh
Sequence of mfPRLR.mmh (monomeric macaca fascicularis PRLR) (as listed by the source): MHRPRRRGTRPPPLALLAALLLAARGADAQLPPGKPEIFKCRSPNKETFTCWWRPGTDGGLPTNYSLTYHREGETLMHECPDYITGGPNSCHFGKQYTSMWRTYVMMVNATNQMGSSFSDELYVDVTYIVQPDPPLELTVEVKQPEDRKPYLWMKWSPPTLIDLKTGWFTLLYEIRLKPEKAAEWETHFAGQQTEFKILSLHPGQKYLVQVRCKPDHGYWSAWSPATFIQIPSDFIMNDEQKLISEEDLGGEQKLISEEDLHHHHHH
Description: as §1

Molecule	IC50 [1]	Percent Blocking at 100 nM Antibody [1]	Kd ([2]; 25° C.)	T½ ([2]; 25° C.)	Kd ([2]; 37° C.)	T½ ([2]; 37° C.)	Kd ([3]; 25° C.)	T½ ([3]; 25° C.)	Kd ([3]; 37° C.)	T½ ([3]; 37° C.)	Kd ([4]; 25° C.)	T½ ([4]; 25° C.)	Kd ([4]; 37° C.)	T½ ([4]; 37° C.)
H1H6967N: human IgG1 Fc form of H2M6967N; anti-PRLR; HCVR/LCVR SEQ ID NOs 354/362 (antibody, V domains shown, human IgG1 Fc) VH: EVQLVESGGDLVHPGRSLRLSCAASGFPFDEYAMHWVRQVPGKGLEWVSGISWSNNNIGYADSVKGRFTISRDNAKNSLYLQMNSLRPEDTAFYYCAKSGIFDSWGQGTLVTVSS VL: EIVMTQSPATLSVSPGERATLSCRASQSVSRDLAWYQQKPGQAPRLLIHGASTRATGIPARFSGSGSGAEFTLIISSLQSEDFAVYYCQQYNNWPLTFGGGTKVEIK	0.768 nM	100%	0.11 nM	259.3 min	0.107 nM	118.8 min	1.35 nM	34.8 min	2.2 nM	12.4 min	3.08 nM	19.7 min	4.54 nM	7.1 min
H1H6975N: human IgG1 Fc form of H2M6975N; anti-PRLR; HCVR/LCVR SEQ ID NOs 370/378 (antibody, V domains shown, human IgG1 Fc) VH: EVHLVESGGGLVQPGGSLRLSCAASGFTFSSYEMNWVRQTPGKGLEWISHISSRSVIIYYADSVKGRFTISRDNAKNSLFLQMNSLRAEDTAVYFCAGITIFGIPEYWGQGTLVTVSS VL: EIVLTQSPATLSLSPGERATLSCRASQSVSSYFAWYQQKPGQAPRLLIYDASSRATGIPTRFSGSGSGTDFTLTISSLEPEDFAVYYCQQRSSWPITFGQGTRLEIK	0.241 nM	100%	0.0684 nM	587.8 min	0.184 nM	163.0 min	0.49 nM	157.1 min	1.29 nM	42.3 min	1.14 nM	88.2 min	2.27 nM	36.4 min
H1H6976N: human IgG1 Fc form of H2M6976N; anti-PRLR; HCVR/LCVR SEQ ID NOs 386/394 (antibody, V domains shown, human IgG1 Fc) VH: EVQLLESGGGFVQPGGSLRLSCAASGFTFSSYAMSWVRQAPGKGLEWVSIISSNGRYTYYADSVKGRFTISRDNSKNTLYLQMNSLRAEDTAVYYCATVTGDWFDPWGQGTLVTVSS VL: DIQLTQSPSFLSASVGDRVTITCWASQDIDISLAWYQQKPGKAPKLLIYAASTLQSGVPSKFSGSGSGTDFTLTISSLQPEDFSTYYCQQLNSYPITFGQGTRLDIK	–	23%	0.0906 nM	114.4 min	0.102 nM	82.6 min	1.59 nM	13.4 min	4.04 nM	3.7 min	1.75 nM	14.2 min	5.24 nM	3.7 min
H1H6762P: anti-PRLR antibody, human IgG1 Fc; HCVR/LCVR SEQ ID NOs 2/10 (antibody, V domains shown, human IgG1 Fc) VH: QVQLVESGGGVVQPGRSLRLSCAASGFTFSHYGMVWVRQPPGKGLEWVALISFDGTTKYYADSVKGRFTISRDNSKNTLYLQMNSLRAEDTAVYFCVGAIAAAAFDLWGRGTLVTVSS VL: EIVMTQSPATLSVSPGERATLSCRASQSVSSDLAWYQQKPGQAPRLLIYSASARATGIPARFTGSGSGTDFTLTISSLQSEDFAVYYCQQYNNWPMYTFGQGTKLEIK	0.0219 nM	100%	0.0992 nM	179 min	0.128 nM	112 min	0.259 nM	64 min	0.48 nM	25 min	0.511 nM	55 min	0.823 nM	21 min
